For test [1], the target named is T1, recombinant mouse TfR-1 (mouse, UniProt Q62351 89-763).
T1 construct: Recombinant protein coated at 1 ug/ml in the phage ELISA; also called mTfR1; mouse transferrin receptor-1
The experiment in a line: phage ELISA. Background: An ELISA detects its analyte on a solid surface through an enzyme-linked reagent.

For test [2], the target named is T2, recombinant human TfR-1 (human, UniProt P02786 89-760).
T2 construct: Recombinant protein coated at 1 ug/ml in the phage ELISA; also called hTfR1; human transferrin receptor-1
In words: phage ELISA.

Data on 47 molecules can be found in patent US20210395381A1 (OSSIANIX, published 2021).

Substitutions are numbered along the chain they refer to.

T2 sequence (P02786 89-760 limits assumed): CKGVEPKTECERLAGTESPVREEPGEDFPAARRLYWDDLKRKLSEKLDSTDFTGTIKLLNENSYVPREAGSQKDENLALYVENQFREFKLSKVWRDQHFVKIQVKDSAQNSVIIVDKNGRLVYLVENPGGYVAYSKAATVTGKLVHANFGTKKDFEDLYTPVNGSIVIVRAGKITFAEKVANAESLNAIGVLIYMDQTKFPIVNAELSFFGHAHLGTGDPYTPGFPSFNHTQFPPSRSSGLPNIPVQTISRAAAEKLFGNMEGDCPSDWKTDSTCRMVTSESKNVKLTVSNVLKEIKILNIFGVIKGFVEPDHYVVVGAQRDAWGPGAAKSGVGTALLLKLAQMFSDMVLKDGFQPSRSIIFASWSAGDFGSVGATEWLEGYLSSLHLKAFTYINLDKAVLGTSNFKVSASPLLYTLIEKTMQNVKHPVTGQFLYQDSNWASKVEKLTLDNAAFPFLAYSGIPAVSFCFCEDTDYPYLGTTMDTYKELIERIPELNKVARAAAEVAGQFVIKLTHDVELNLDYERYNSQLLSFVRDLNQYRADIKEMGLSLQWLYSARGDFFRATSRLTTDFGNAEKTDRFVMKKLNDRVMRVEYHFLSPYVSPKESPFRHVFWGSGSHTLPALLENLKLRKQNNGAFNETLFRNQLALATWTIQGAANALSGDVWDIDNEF
T1 sequence (Q62351 89-763 limits assumed): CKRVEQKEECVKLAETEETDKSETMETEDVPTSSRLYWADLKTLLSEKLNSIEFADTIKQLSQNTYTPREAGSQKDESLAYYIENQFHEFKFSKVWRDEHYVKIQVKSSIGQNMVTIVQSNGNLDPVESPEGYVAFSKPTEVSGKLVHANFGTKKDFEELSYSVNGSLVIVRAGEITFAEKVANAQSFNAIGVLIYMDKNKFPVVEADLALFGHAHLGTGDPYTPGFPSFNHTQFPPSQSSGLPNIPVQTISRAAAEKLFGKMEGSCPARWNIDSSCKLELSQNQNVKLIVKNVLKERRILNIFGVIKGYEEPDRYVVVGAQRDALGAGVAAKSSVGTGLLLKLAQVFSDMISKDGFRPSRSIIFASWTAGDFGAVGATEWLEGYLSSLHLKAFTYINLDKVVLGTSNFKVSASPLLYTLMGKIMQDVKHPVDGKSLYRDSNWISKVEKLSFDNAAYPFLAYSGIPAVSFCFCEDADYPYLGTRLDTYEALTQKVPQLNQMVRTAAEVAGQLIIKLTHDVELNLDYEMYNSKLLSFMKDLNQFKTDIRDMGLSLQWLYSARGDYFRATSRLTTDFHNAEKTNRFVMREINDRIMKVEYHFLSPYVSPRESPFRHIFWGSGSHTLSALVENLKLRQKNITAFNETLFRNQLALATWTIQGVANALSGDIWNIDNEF

B1: Clone 8.93 (VNAR)
VNAR: ARVDQTPQTITKETGESLTINCVLRDSNCALPSTYWYRKKSGSTNEESISKGGRYVETVNSGSKSFSLRINDLTVEDSGTYRCKVIAQQSSILRGCNYRKHDVYGDGTAVTVNA
notes: VNAR on phage; Clone 8 framework
With B1, the A450 turned out to be 0.055 A450 in test [1] and 0.05 A450 in test [2].

B2: Clone 8.139 (VNAR)
VNAR: B1 VNAR with I86D, Q88H, Q89L
notes: as for B1
B2: the results for the A450 in test [1] and in test [2] were 0.045 A450 and 0.05 A450, respectively.

B3: Clone 8.106 (VNAR)
VNAR: B1 VNAR with I86V, Q89L, I92H, L93Y, R94D
notes: as for B1
Regarding B3, the A450 came to 0.051 A450 in test [1] and 0.054 A450 in test [2].

B4: Clone 8.135 (VNAR)
VNAR: B1 VNAR with Q89L, S90F, S91P, I92P
notes: as for B1
As to B4, the A450 in test [1] stood at 0.046 A450; in test [2], 0.058 A450.

B5: Clone 8.99 (VNAR)
VNAR: B1 VNAR with I86L, A87F, Q88D, Q89L
notes: as for B1
With B5, the figures for the A450 in test [1] and in test [2] were 0.053 A450 and 0.059 A450, respectively.

B6: Clone 8.121 (VNAR)
VNAR: B1 VNAR with Q88T, Q89L, S90G
notes: as for B1
For the molecule B6, the A450 in test [1] and in test [2] was 0.049 A450 throughout.

B7: Clone 8.102 (VNAR)
VNAR: B1 VNAR with Q89L, N97A, Y98G, R99V
notes: as for B1
For the molecule B7, the A450 in test [1] turned out to be 0.052 A450; in test [2], 0.049 A450.

B8: Clone 8.108 (VNAR)
VNAR: B1 VNAR with Q89L, R99K, K100N, H101V
notes: as for B1
On to B8, for which the figures for the A450 in test [1] and in test [2] were 0.051 A450 and 0.044 A450, respectively.

B9: Clone 8.136 (VNAR)
VNAR: B1 VNAR with Q89L, I92A, L93G, R94I
notes: as for B1
Turning to B9, the A450 worked out at 0.046 A450 in test [1] and 0.055 A450 in test [2].

B10: Clone 8.116 (VNAR)
VNAR: B1 VNAR with Q89L, S90N, S91H, I92Y
notes: as for B1
In the case of B10, the A450 in test [1] came out at 0.049 A450; in test [2], 0.066 A450.

B11: Clone 8.130 (VNAR)
VNAR: B1 VNAR with Q89L, R99A, K100H, H101L
notes: as for B1
Regarding B11, the results for the A450 in test [1] and in test [2] were 0.047 A450 and 0.049 A450, respectively.

B12: Clone 8.122 (VNAR)
VNAR: B1 VNAR with Q89L, K100A, H101S
notes: as for B1
Turning to B12, the values for the A450 in test [1] and in test [2] were 0.048 A450 and 0.047 A450, respectively.

B13: Clone 8.140 (VNAR)
VNAR: B1 VNAR with Q88I, Q89T, S90L
notes: as for B1
For the molecule B13, the A450 was 0.045 A450 in test [1] and 0.053 A450 in test [2].

B14: Clone 8.128 (VNAR)
VNAR: B1 VNAR with Q89L, S90I, S91K, I92N
notes: as for B1
For B14, the A450 in test [1] was 0.047 A450; in test [2] it was 0.051 A450.

B15: Clone 8.105 (VNAR)
VNAR: B1 VNAR with I86V, Q88L, S90E
notes: as for B1
As for B15, the values for the A450 in test [1] and in test [2] were 0.051 A450 and 0.047 A450, respectively.

B16: Clone 8.126 (VNAR)
VNAR: B1 VNAR with S90D, S91Q, I92D
notes: as for B1
B16: the A450 in test [1] amounted to 0.048 A450; in test [2] it was 0.05 A450.

B17: Clone 8.129 (VNAR)
VNAR: B1 VNAR with Q89L, Y98Q, R99P
notes: as for B1
For B17, the A450 in test [1] and in test [2] was 0.047 A450 in each case.

B18: Clone 8.127 (VNAR)
VNAR: B1 VNAR with Q88K, Q89P, S90N
notes: as for B1
On to B18, for which the A450 in test [1] and in test [2] was 0.047 A450 in each case.

B19: Clone 8.141 (VNAR)
VNAR: B1 VNAR with Q88K, Q89A
notes: as for B1
As to B19, the A450 is 0.045 A450 in test [1] and 0.051 A450 in test [2].

B20: Clone 8.100 (VNAR)
VNAR: B1 VNAR with I86P, A87H, Q88M, Q89L
notes: as for B1
Regarding B20, the A450 is 0.053 A450 in test [1] and 0.048 A450 in test [2].

B21: Clone 8.104 (VNAR)
VNAR: B1 VNAR with Q89L, I92R, L93E, R94L
notes: VNAR on phage; Clone 8 framework; same CDR3 as 8.133
As to B21, the A450 in test [1] was found to be 0.052 A450; in test [2], 0.05 A450.

B22: Clone 8.107 (VNAR)
VNAR: B1 VNAR with Q89L, R94F, R99F, H101N
notes: as for B1
For B22, the A450 in test [1] is 0.051 A450; in test [2], 0.048 A450.

B23: Clone 8.101 (VNAR)
VNAR: B1 VNAR with Q89L, S90H, S91T, I92H
notes: as for B1
Regarding B23, the A450 in test [1] is 0.052 A450; in test [2] it was 0.048 A450.

B24: Clone 8.113 (VNAR)
VNAR: B1 VNAR with Q89L, I92Y, L93R, R94P
notes: VNAR on phage; Clone 8 framework; same CDR3 as 8.120
B24: the results for the A450 in test [1] and in test [2] were 0.05 A450 and 0.051 A450, respectively.

B25: Clone 8.133 (VNAR)
VNAR: B1 VNAR with Q89L, I92R, L93E, R94L
notes: VNAR on phage; Clone 8 framework; same CDR3 as 8.104
Turning to B25, the A450 in test [1] and in test [2] was 0.047 A450 in each case.

B26: Clone 8.117 (VNAR)
VNAR: B1 VNAR with Q89L, R94A, G95L, N97M
notes: as for B1
With B26, the A450 in test [1] worked out at 0.049 A450; in test [2], 0.056 A450.

B27: Clone 8.98 (VNAR)
VNAR: B1 VNAR with I86L, A87E, Q88K, Q89L
notes: as for B1
As for B27, the figures for the A450 in test [1] and in test [2] were 0.053 A450 and 0.055 A450, respectively.

B28: Clone 8.110 (VNAR)
VNAR: B1 VNAR with Q89L, S90K, S91W, I92G
notes: as for B1
As to B28, the results for the A450 in test [1] and in test [2] were 0.05 A450 and 0.055 A450, respectively.

B29: Clone 8.94 (VNAR)
VNAR: B1 VNAR with Q88D, Q89V, S90G
notes: as for B1
With B29, the A450 was determined as 0.054 A450 in test [1] and 0.06 A450 in test [2].

B30: Clone 8.112 (VNAR)
VNAR: B1 VNAR with Q89L, I92V, L93Y, R94K
notes: as for B1
As for B30, the A450 in test [1] and in test [2] was 0.05 A450 throughout.

B31: Clone 8.96 (VNAR)
VNAR: B1 VNAR with Q89L, I92M, L93Y, R94K
notes: as for B1
On to B31, for which the A450 in test [1] turned out to be 0.054 A450; in test [2], 0.051 A450.

B32: Clone 8.118 (VNAR)
VNAR: B1 VNAR with Q89L, I92R, L93A, R94M
notes: as for B1
Regarding B32, the A450 is 0.049 A450 in test [1] and 0.051 A450 in test [2].

B33: Clone 8.120 (VNAR)
VNAR: B1 VNAR with Q89L, I92Y, L93R, R94P
notes: VNAR on phage; Clone 8 framework; same CDR3 as 8.113
Take B33: the A450 in test [1] stood at 0.049 A450; in test [2] it was 0.048 A450.

B34: Clone 8.109 (VNAR)
VNAR: B1 VNAR with Q89L, R99T, K100L, H101Y
notes: as for B1
Turning to B34, the A450 in test [1] is 0.051 A450; in test [2], 0.055 A450.

B35: Clone 8.114 (VNAR)
VNAR: B1 VNAR with Q89P, R99G, H101L
notes: as for B1
For the molecule B35, the A450 in test [1] came out at 0.05 A450; in test [2] it was 0.058 A450.

B36: Clone 8.125 (VNAR)
VNAR: B1 VNAR with Q89L, I92Y, L93E, R94T
notes: as for B1
Take B36: the A450 in test [1] came out at 0.048 A450; in test [2] it was 0.05 A450.

B37: Clone 8.134 (VNAR)
VNAR: B1 VNAR with I86D, A87L, Q88T, Q89L
notes: as for B1
B37: the A450 was 0.046 A450 in test [1] and 0.053 A450 in test [2].

B38: Clone 8.124 (VNAR)
VNAR: B1 VNAR with Q89L, I92V, L93K, R94D
notes: as for B1
Take B38: the results for the A450 in test [1] and in test [2] were 0.048 A450 and 0.049 A450, respectively.

B39: Clone 8.132 (VNAR)
VNAR: B1 VNAR with Q89L, R99M, K100H, H101P
notes: as for B1
Regarding B39, the A450 in test [1] is 0.047 A450; in test [2], 0.053 A450.

B40: Clone 8.103 (VNAR)
VNAR: B1 VNAR with Q89L, N97K, Y98Q, R99F, K100E, H101Y
notes: as for B1
As to B40, the values for the A450 in test [1] and in test [2] were 0.052 A450 and 0.05 A450, respectively.

B41: Clone 8.119 (VNAR)
VNAR: B1 VNAR with Q89L, I92V, L93F, R94I
notes: as for B1
Take B41: the A450 in test [1] worked out at 0.049 A450; in test [2], 0.045 A450.

B42: Clone 8.123 (VNAR)
VNAR: B1 VNAR with Q89L, L93M, R99I, K100M, H101R
notes: as for B1
For the molecule B42, the A450 in test [1] and in test [2] was 0.048 A450 throughout.

B43: Clone 8.138 (VNAR)
VNAR: B1 VNAR with Q89L, I92L, L93S, R94F
notes: as for B1
As to B43, the A450 in test [1] was 0.046 A450; in test [2], 0.047 A450.

B44: Clone 8.131 (VNAR)
VNAR: B1 VNAR with Q89L, R99L, K100D, H101L
notes: as for B1
With B44, the values for the A450 in test [1] and in test [2] were 0.047 A450 and 0.066 A450, respectively.

B45: Clone 8.111 (VNAR)
VNAR: B1 VNAR with Q89L, R99D, K100V, H101N
notes: as for B1
For the molecule B45, the A450 in test [1] was 0.05 A450; in test [2] it was 0.056 A450.

B46: Clone 8.95 (VNAR)
VNAR: B1 VNAR with Q89L, R94L, G95K, N97E
notes: as for B1
For B46, the values for the A450 in test [1] and in test [2] were 0.054 A450 and 0.049 A450, respectively.

B47: Clone 8.115 (VNAR)
VNAR: B1 VNAR with Q88L, Q89H, S90R
notes: as for B1
Regarding B47, the values for the A450 in test [1] and in test [2] were 0.049 A450 and 0.047 A450, respectively.
